Assays:
HLA-A02:01 [1] = target: T1, HLA-A02:01 (Homo sapiens, UniProt P04439, D140Y/D185E/D98H/E176V/E277Q/G131W/G231S/I119V/I121R/I166T/I218V/L300P/L318F/N151K/N90K/P208A/P217A/Q86G/Q94H/R138H/R169H/T345S); experiment: Affinity of neoepitopes for the indicated HLA allele; type: binding; conditions: HLA allele A02.01; mutant KRAS peptides (Example 9)
Procedure: (§1) Multiple peptides containing the neoepitopes in the table below were expressed or loaded onto antigen presenting cells (APCs). Mass spectrometry was then performed and the affinity of the neoepitopes for the indicated HLA alleles and stability of the neoepitopes with the HLA alleles was determined.

HLA-A02:01 [2] = target: T1, HLA-A02:01; experiment: Stability of neoepitopes with the HLA allele; type: binding; conditions: HLA allele A02.01; mutant KRAS peptides (Example 9)
Procedure: as §1

[3] = system: ovarian carcinoma patients; conditions: poly-ICLC in combination with a NYESO-1 peptide vaccine (in addition to Montanide); phase 1 study; cited from earlier work
humans = conditions: cited from earlier work

| Substance | Measured Affinity (HLA-A02:01 [1]) | Measured stability (HLA-A02:01 [2]) | Patients showing induction of CD4+ and CD8+ T cell, as well as antibody responses to the peptide [3] | CD4+ and CD8+ responses in humans (humans) |
| --- | --- | --- | --- | --- |
| LVVVGACGV | 667.1 nM | 0.6 h |  |  |
| LVVVGADGV | 977.4 nM | 0.0 h |  |  |
| LVVVGAVGV | 682.5 nM | 0.6 h |  |  |
| poly-ICLC |  |  | > 90% | can induce durable CD4^+ and CD8^+ responses |
